B1: GpH7-A5/GpH7-B3 variant D270_12R/GpL16-k0 (antibody, human IgG1, kappa)
heavy 1: not shown
heavy 2: not shown
light: DIVMTQSPLSLPVTPGEPASISCQASESLVHSNRNTYLHWYLQKPGQSPQLLIYKVSNRFSGVPDRFSGSGSGTDFTLKISRVEAEDVGVYYCSQNTHVPPTFGQGTKVEIERTVAAPSVFIFPPSDEQLKSGTASVVCLLNNFYPREAKVQWKVDNALQSGNSQESVTEQDSKDSTYSLSSTLTLSKADYEKHKVYACEVTHQGLSSPVTKSFNRGEC
notes: Heterodimerized anti-glypican-3 IgG1 (He Ab); mutation in the B3 H chain only; also called He Ab
B2: GpH7-A5/GpH7-B3 variant E269_20W/GpL16-k0 (antibody, human IgG1, kappa)
heavy 1: not shown
heavy 2: not shown
light: B1 light
notes: as for B1
B3: GpH7-A5/GpH7-B3 variant E269_07I/GpL16-k0 (antibody, human IgG1, kappa)
heavy 1: not shown
heavy 2: not shown
light: B1 light
notes: as for B1
B4: GpH7-A5/GpH7-B3 variant Q295_11K/GpL16-k0 (antibody, human IgG1, kappa)
heavy 1: not shown
heavy 2: not shown
light: B1 light
notes: as for B1
B5: GpH7-A5/GpH7-B3 variant E269_12R/GpL16-k0 (antibody, human IgG1, kappa)
heavy 1: not shown
heavy 2: not shown
light: B1 light
notes: as for B1
B6: GpH7-A5/GpH7-B3 variant D270_14T/GpL16-k0 (antibody, human IgG1, kappa)
heavy 1: not shown
heavy 2: not shown
light: B1 light
notes: as for B1
B7: GpH7-A5/GpH7-B3 variant E269_16H/GpL16-k0 (antibody, human IgG1, kappa)
heavy 1: not shown
heavy 2: not shown
light: B1 light
notes: as for B1
B8: GpH7-A5/GpH7-B3 variant Q295_20W/GpL16-k0 (antibody, human IgG1, kappa)
heavy 1: not shown
heavy 2: not shown
light: B1 light
notes: as for B1
B9: GpH7-A5/GpH7-B3 variant E269_14T/GpL16-k0 (antibody, human IgG1, kappa)
heavy 1: not shown
heavy 2: not shown
light: B1 light
notes: as for B1
B10: GpH7-A5/GpH7-B3 variant E269_11K/GpL16-k0 (antibody, human IgG1, kappa)
heavy 1: not shown
heavy 2: not shown
light: B1 light
notes: as for B1
B11: GpH7-A5/GpH7-B3 variant D270_16H/GpL16-k0 (antibody, human IgG1, kappa)
heavy 1: not shown
heavy 2: not shown
light: B1 light
notes: as for B1
B12: GpH7-A5/GpH7-B3 variant Q295_16H/GpL16-k0 (antibody, human IgG1, kappa)
heavy 1: not shown
heavy 2: not shown
light: B1 light
notes: as for B1
B13: GpH7-A5/GpH7-B3 variant E269_18N/GpL16-k0 (antibody, human IgG1, kappa)
heavy 1: not shown
heavy 2: not shown
light: B1 light
notes: as for B1
B14: GpH7-A5/GpH7-B3 variant E269_03V/GpL16-k0 (antibody, human IgG1, kappa)
heavy 1: not shown
heavy 2: not shown
light: B1 light
notes: as for B1
B15: GpH7-A5/GpH7-B3 variant Q295_12R/GpL16-k0 (antibody, human IgG1, kappa)
heavy 1: not shown
heavy 2: not shown
light: B1 light
notes: as for B1
B16: GpH7-A5/GpH7-B3 variant S298_03V/GpL16-k0 (antibody, human IgG1, kappa)
heavy 1: not shown
heavy 2: not shown
light: B1 light
notes: as for B1
B17: GpH7-A5/GpH7-B3 variant Q295_07I/GpL16-k0 (antibody, human IgG1, kappa)
heavy 1: not shown
heavy 2: not shown
light: B1 light
notes: as for B1

How the values were obtained:
[1] = target: T1, FcγRIIa H (human, UniProt P12318 34-217); experiment: ratio of He/Con_2aH to He/Con_2b (FcγRIIb); SPR
T1 construct: extracellular domain; also called FcγRIIa type H; 2aH
T1 sequence (looked up): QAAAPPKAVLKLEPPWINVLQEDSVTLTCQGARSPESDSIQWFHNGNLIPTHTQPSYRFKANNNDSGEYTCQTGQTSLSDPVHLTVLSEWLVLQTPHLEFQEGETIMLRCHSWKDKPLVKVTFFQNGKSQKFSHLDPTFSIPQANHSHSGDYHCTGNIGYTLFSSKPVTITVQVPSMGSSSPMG

[2] = target: T2, FcγRIIb (human, UniProt P31994 43-217); experiment: SPR (Biacore), captured antibody, FcγR as analyte; GpH7-A5/GpH7-B3/GpL16-k0 = 100
T2 construct: extracellular domain; also called 2b; FcgRIIb
T2 sequence (looked up): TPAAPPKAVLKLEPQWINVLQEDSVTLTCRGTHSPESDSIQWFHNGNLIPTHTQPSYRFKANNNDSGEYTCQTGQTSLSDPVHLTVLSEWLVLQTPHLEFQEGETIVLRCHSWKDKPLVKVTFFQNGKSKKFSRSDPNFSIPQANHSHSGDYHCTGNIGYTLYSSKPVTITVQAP
Experimental: (§1) The heterodimerized antibodies He Abs in which one of the H chains was introduced with an alteration were assayed for their binding activities to each activating FcγR and inhibitory FcγR according to the method described in Example 4. […] The activating FcγRs in FIGS. 26, 27, 28, and 29 are FcγRIa, FcγRIIa (R), FcγRIIa (H), and FcγRIIIa, respectively.
(§2) Analysis of interaction between objective antibody and the FcγR was carried out using Biacore T100 (GE Healthcare). HBS-EP+ (GE Healthcare) was used as the running buffer, and the measurement temperature was set to 25° C. Chips produced by immobilizing the antigen peptide by the amine coupling method to a Series S Sencor Chip CM5 (GE Healthcare), or alternatively, chips produced by allowing preliminarily biotinylated antigen peptides to interact with and immobilize onto a Series S Sensor Chip SA (certified) (GE Healthcare) were used. Antibodies of interest were captured onto an antigen peptide-immobilized chip, and allowed to interact to each FcγR diluted with running buffer. To regenerate and repeatedly use the chip, the antibodies captured on the chip were washed off by reacting 10 mM glycine-HCl, pH 1.5.

[3] = target: T1, FcγRIIa H; experiment: as above
Experimental: as §1, §2

Binder	He_2aH/2b (IIaH/IIb ratio) [1]	He/Con_2b (relative binding) [2] [%]	He/Con_2aH (relative binding) [3] [%]
B1	2.16	18.3	39.5
B2	1.43	42.5	60.9
B3	1.52	43.9	66.6
B4	1.27	70.4	89.4
B5	1.86	25.2	46.8
B6	1.3	57.8	75.3
B7	1.53	38.5	59
B8	1.25	44.4	55.6
B9	1.37	50.6	69.6
B10	2.87	17.8	51.1
B11	1.51	47.2	71.5
B12	1.25	62.7	78.6
B13	1.44	44.8	64.4
B14	1.49	45.1	67.5
B15	1.29	65.2	84.1
B16	1.32	64.5	85.1
B17	1.21	84.3	102

— US20150344570A1 (published 2015)
